Results on five molecules are retold here after US5981720.

No end group written: not given here. *: point of attachment. βGlcNAc = CC(=O)N[C@@H]1[C@@H](O)[C@H](O)[C@@H](CO)O[C@H]1*

Experiment [1] addresses yeast alpha-glucosidase (yeast).
For experiment [2] the target is unchanged. Particulars: scale: decrease of umole of glucose production from maltose per microgram of protein per hour.
For experiment [3] the target is unchanged. The source holds these as a separate data set.
For experiment [4] the target is unchanged. This is another data set of the same source.

B1: PNGase treated CON-1 (protein)
chain: SPPGKPQGPPPQGGNQPQGPPPPPGKPQGPPPQGGNKPQGPPPPGKPQGPPPQGDNKSQSARSPPGKPQGPPPQGGNQPQGPPPPPGKPQGPPPQGGNKSQGPPPPGKPQGPPPQGGSKSRSSR
modifications: carbohydrate moiety removed with PNGase
B1 had an alpha-glucosidase inhibition assay in experiment [1] of 50 percent.

B2: CON-1 (protein)
chain: B1 chain
modifications: glycoprotein; glycosylation occurs at one N-linked site (acetylglucosamine on asparagine of glycine-glycine-asparagine-lysine)
Regarding B2, the Specific Inhibitory Activity in experiment [2] came out at 2810.

GGNK (acetylglucosamine cleaved off the asparagine with N-acetylglucosaminidase) [glycopeptide treated with N-acetylglucosaminidase] registered an inhibitory effect on alpha-glucosidase activity (% of inhibition lost) in experiment [3] of 20.

In turn, GGN(βGlcNAc)K [synthetic glycopeptide Gylcyl-glycl-(NB-2-(acetylamino)-deoxy-2-B-pyranosyl)-asparaginyl-lysine] had an inhibitory effect on alpha-glucosidase activity in experiment [4] of 90%.

GGN(βGlcNAc)K(pyridoxal 5‑phosphate) [pyridoxal 5-phosphate modified glycopeptide]: the inhibitory effect on alpha-glucosidase activity (% increase in inhibitory effect) in experiment [3] was determined as 50.
